Test results taken from US20150359911, “Aptamer Specific to Integrin alpha-v-beta-3 and Use Thereof” (POSTECH ACADEMY-INDUSTRY FOUNDATION, published 2015).

Columns and labels:
Settings in all cases: tags: R&D Systems 3050-AV
Integrin alpha-v beta-3 [1] = molecular target: T1, Integrin alpha-v beta-3 (UniProt P06756;P05106 P06756:31-992,P05106:27-718); experiment: filter; Bmax 0.56; HEPES, NaCl, KCl, MgCl2 buffer, 37 C
Description: (§1) 20,000 cpm of the labeled DNA pool were put in 100 μL 1×SB buffer (200 mM HEPES, 510 mM NaCl, 25 mM KCl, 25 mM MgCl₂), and slowly cooled from 95° C. to 37° C. at a rate of 0.1° C./sec. And, integrin αᵥβ₃ (R&D systems, 3050-AV) was serially diluted to 12 points at 100 nM using buffer (200 mM HEPES, 510 mM NaCl, 25 mM KCl, 25 mM MgCl₂), and then, 30 μL of the above heated and cooled DNA pool was respectively added and reacted at 37° C. for 30 minutes. A nylon membrane (GE healthcare) was spotted with 2 μL of the complex of DNA and integrin αᵥβ₃, and then, 5.5 μL of zorbax resin (Agilent) was added thereto. And, it was put in a Durapore filter (Millipore) previously wetted with 50 μL of 1×SB buffer (200 mM HEPES, 510 mM NaCl, 25 mM KCl, 25 mM MgCl₂) and vacuum was applied. And, the membrane filter was washed with 100 μL of 1× selection buffer (200 mM HEPES, 510 mM NaCl, 25 mM KCl, 25 mM MgCl₂). The filter plate was exposed to an image plate overnight, and then, images were quantified with FLA-5100 (Fuji).
(§2) In order to examine binding affinity of clone having repeatedly observed base sequence, filter binding assay was conducted by the same method as pool binding assay. The binding affinity was calculated using SigmaPlot 11 (Systat Software Inc.) from the value obtained through the filter binding assay, and the results are shown in the following Table 4. […]

Integrin alpha-v beta-3 [2] = molecular target: T1, Integrin alpha-v beta-3; experiment: filter; Bmax 0.88; HEPES, NaCl, KCl, MgCl2 buffer, 37 C
Description: as §1, §2

Integrin alpha-v beta-3 [3] = molecular target: T1, Integrin alpha-v beta-3; experiment: filter; Bmax 0.82; HEPES, NaCl, KCl, MgCl2 buffer, 37 C
Description: as §1, §2

Integrin alpha-v beta-3 [4] = molecular target: T1, Integrin alpha-v beta-3; experiment: filter; Bmax 0.69; HEPES, NaCl, KCl, MgCl2 buffer, 37 C
Description: as §1, §2

T1 sequence (P06756 31-992, chain 1 of 2): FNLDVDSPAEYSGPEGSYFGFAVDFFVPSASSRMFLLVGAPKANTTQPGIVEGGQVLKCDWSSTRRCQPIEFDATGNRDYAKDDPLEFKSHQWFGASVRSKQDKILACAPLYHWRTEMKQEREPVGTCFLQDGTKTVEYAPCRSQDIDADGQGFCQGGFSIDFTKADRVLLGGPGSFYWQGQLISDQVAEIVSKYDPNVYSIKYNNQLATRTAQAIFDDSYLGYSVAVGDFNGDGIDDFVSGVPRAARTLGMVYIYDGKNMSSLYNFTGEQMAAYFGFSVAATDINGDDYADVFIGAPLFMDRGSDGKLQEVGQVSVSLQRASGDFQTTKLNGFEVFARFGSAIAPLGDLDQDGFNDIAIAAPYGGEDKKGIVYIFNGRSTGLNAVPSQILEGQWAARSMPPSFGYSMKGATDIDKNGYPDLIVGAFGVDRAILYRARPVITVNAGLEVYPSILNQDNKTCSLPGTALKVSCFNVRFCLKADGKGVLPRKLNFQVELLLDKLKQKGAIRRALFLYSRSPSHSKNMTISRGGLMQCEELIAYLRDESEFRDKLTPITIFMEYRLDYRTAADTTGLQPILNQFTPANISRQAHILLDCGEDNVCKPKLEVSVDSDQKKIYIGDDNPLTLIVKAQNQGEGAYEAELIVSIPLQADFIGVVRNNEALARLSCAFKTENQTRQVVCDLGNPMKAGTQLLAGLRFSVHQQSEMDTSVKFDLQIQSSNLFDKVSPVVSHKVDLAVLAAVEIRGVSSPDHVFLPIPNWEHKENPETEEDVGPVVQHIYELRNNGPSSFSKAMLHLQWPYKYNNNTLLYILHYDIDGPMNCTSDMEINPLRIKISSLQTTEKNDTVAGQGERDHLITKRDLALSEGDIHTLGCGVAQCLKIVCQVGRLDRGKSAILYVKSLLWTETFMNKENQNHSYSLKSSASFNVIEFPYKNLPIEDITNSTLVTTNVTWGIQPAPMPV
T1 sequence (P05106 27-718, chain 2 of 2): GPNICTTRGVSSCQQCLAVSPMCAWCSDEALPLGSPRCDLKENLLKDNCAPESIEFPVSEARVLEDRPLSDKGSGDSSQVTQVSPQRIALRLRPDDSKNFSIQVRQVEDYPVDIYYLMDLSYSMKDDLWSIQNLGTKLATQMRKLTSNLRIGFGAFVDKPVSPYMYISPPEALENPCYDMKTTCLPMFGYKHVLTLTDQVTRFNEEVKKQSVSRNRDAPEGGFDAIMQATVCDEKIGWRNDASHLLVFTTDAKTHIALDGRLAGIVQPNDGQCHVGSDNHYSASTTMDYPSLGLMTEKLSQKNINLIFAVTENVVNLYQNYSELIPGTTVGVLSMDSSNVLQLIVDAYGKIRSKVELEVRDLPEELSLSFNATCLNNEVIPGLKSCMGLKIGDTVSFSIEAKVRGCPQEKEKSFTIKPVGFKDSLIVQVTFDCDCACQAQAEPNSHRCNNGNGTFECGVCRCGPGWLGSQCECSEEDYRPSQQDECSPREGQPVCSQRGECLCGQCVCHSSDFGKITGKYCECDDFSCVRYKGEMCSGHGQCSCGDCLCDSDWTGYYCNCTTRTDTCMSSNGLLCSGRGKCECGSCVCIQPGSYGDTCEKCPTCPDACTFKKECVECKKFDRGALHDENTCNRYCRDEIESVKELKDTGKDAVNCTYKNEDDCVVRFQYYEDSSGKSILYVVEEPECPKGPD

B1: Clone #11 (S003-A4-011-T7_C02), full length (ssDNA)
DNA: TCAGCCGCCAGCCAGTTCTTTTAATCTTCTCTGTCAGATGGCTGGTAGGGTGTATGACGACCAGAGCACCACAGAG
modifications: n in core = 5-(N-benzylaminocarbonyl)-2'-deoxyuridine (BzdU) [n positions 19,20,21,22,25,27,28,30,32,34,39,43,46,51,53,55 = modified dU]
Binder B1 has a Kd (Integrin alpha-v beta-3 [1]) of 38 nM.

B2: Clone #21 (S003-A4-021-T7_E03), full length (ssDNA)
DNA: TCAGCCGCCAGCCAGTTCCGAGGGAGTTATGGAGATTGTGTTGTTTAAGGTCGGAACTGACCAGAGCACCACAGAG
modifications: n in core = 5-(N-benzylaminocarbonyl)-2'-deoxyuridine (BzdU) [n positions 27,28,30,36,37,39,41,42,44,45,46,51,58 = modified dU]
For B2, the Kd (Integrin alpha-v beta-3 [2]) was 59 nM.

B3: Clone #25 (S003-A4-025-T7_A04), full length (ssDNA)
DNA: TCAGCCGCCAGCCAGTTCGTTTTAAGAAATTAGCACACCGTTGACTTGTTTAGTGGCGGACCAGAGCACCACAGAG
modifications: n in core = 5-(N-benzylaminocarbonyl)-2'-deoxyuridine (BzdU) [n positions 20,21,22,23,30,31,41,42,46,47,49,50,51,54 = modified dU]
B3 showed a Kd (Integrin alpha-v beta-3 [3]) of 17.6 nM.

B4: Clone #12 (S003-A4-012-T7_D02), full length (ssDNA)
DNA: TCAGCCGCCAGCCAGTTCAGTTGCCAATTTGCAGCCTAGGATACGTTTTCGAAACTGCAGACCAGAGCACCACAGAG
modifications: n in core = 5-(N-benzylaminocarbonyl)-2'-deoxyuridine (BzdU) [n positions 21,22,28,29,30,37,42,46,47,48,49,56 = modified dU]
For B4, the Kd (Integrin alpha-v beta-3 [4]) was 23.2 nM.
